Measurements: paper PMC2990805 (2012)

Target: T1, Cyt1Aa (Bacillus thuringiensis subsp. …, UniProt P0A382)
T1 chain: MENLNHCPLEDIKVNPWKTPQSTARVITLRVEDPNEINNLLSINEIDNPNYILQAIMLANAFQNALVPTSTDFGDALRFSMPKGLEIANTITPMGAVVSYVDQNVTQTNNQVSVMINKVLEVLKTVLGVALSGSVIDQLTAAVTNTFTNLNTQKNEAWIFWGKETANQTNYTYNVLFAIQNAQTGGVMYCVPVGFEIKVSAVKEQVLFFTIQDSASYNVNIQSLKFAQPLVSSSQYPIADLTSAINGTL
Assay: ELISA

B1: Cry4Ba (protein)
chain: NSGYPLANDLQGSMKNTNYKDWLAMCENNQQYGVNPAAINSSSVSTALKVAGAILKFVNPPAGTVLTVLSAVLPILWPTNTPTPERVWNDFMTNTGNLIDQTVTAYVRTDANAKMTVVKDYLDQYTTKFNTWKREPNNQSYRTAVITQFNLTSAKLRETAVYFSNLVGYELLLLPIYAQVANFNLLLIRDGLINAQEWSLARSAGDQLYNTMVQYTKEYIAHSITWYNKGLDVLRNKSNGQWITFNDYKREMTIQVLDILALFASYDPRRYPADKIDNTKLSKTEFTREIYTALVESPSSKSIAALEAALTRDVHLFTWLKRVDFWTNTIYQDLRFLSANKIGFSYTNSSAMQESGIYGSSGFGSNLTHQIQLNSNVYKTSITDTSSPSNRVTKMDFYKIDGTLASYNSNITPTPEGLRTTFFGFSTNENTPNQPTVNDYTHILSYIKTDVIDYNSNRVSFAWTHKIVDPNNQIYTDAITQVPAVKSNFLNATAKVIKGPGHTGGDLVALTSNGTLSGRMEIQCKTSIFNDPTRSYGLRIRYAANSPIVLNVSYVLQGVSRGTTISTESTFSRPNNIIPTDLKYEEFRYKDPFDAIVPMRLSSNQLITIAIQPLNMTSNNQVIIDRIEIIPITQSVLDETENQNLESEREVVNALFTNDAKDALNIGTTDYDIDQAANLVECISEELYPKEKMLLLDEVKNAKQLSQSRNVLQNGDFESATLGWTTSDNITIQEDDPIFKGHYLHMSGARDIDGTIFPTYIFQKIDESKLKPYTRYLVRGFVGSSKDVELVVSRYGEEIDAIMNVPADLNYLYPSTFDCEGSNRCETSAVPANIGNTSDMLYSCQYDTGKKHVVCQDSHQFSFTIDTGALDTNENIGVWVMFKISSPDGYASLDNLEVIEEGPIDGEALSRVKHMEKKWNDQMEAKRSETQQAYDVAKQAIDALFTNVQDEALQFDTTLAQIQYAEYLVQSIPYVYNDWLSDVPGMNYDIYVELDARVAQARYLYDTRNIIKNGDFTQGVMGWHVTGNADVQQIDGVSVLVLSNWSAGVSQNVHLQHNHGYVLRVIAKKEGPGNGYVTLMDCEENQEKLTFTSCEEGYITKTVDVFPDTDRVRIEIGETEGSFYIESIELICMNE
modifications: trypsin-activated Cry4Ba, proteinase K-activated Cyt1Aa
- Kd: 47 nM
